The values below come from patent US20210253713A1 (ABEXXA BIOLOGICS, published 2021).

Assay [1] concerns the target T1, HLA-E/… (human, UniProt P13747 22-297; P61769 21-119, limits assumed).
T1 construct: Biotin-labeled control complex captured on neutravidin plates through a C-terminal BirA tag; also called control HLA-E/peptide complex
Kind of assay: ELISA, biotin-labeled complex on neutravidin plates, soluble bivalent IgG1, anti-human-HRP. Here is the method: (§1) To further evaluate the binding specificity and detection sensitivity of MAB-031 and MAB-036, a second ELISA was performed. For this assay, neutravidin coated plates were used to capture biotin-labeled HLA-E/peptide complexes. Because the HLA-E/peptide complexes have a single biotin molecule conjugated to the c-terminal end BirA tag, the immobilization of these complexes results in having the molecules lined up in a homogenous directional orientation. After incubation, unbound biotin-labeled HLA-E/peptide complexes are removed by rinsing the plate in a PBS+tween-20 buffer solution. MAB31 and MAB36 were then added to wells at concentrations that ranged from 1 ug/ml to 0.0001 ug/ml. Incubation was carried out for 1 hr, wells were rinsed and bound MAB was detected using a 1:2500 dilution of a goat anti-human-HRP conjugate. The assay was developed by adding the TMB substrate solution was added to wells and developed for 10 min before adding stop solution to terminate the reaction.
On the technique in general: In an ELISA, binding on a coated surface is turned into a signal by an enzyme label.

Assay [2] addresses T2, HLA-E/… (human, UniProt P13747 22-297; P61769 21-119, limits assumed).
T2 construct: Biotin-labeled control complex captured on neutravidin plates through a C-terminal BirA tag; also called control HLA-E/peptide complex
Described as above. Here is the method: as §1
This is another data set of the same source.

The target in assay [3] is T3, HLA-E/… (human, UniProt P13747 22-297; P61769 21-119, limits assumed).
T3 construct: Biotin-labeled control complex captured on neutravidin plates through a C-terminal BirA tag; also called control HLA-E/peptide complex
Described as above. The protocol: as §1
This is another data set of the same source.

In assay [4] the target is T4, HLA-E/… (human, UniProt P13747 22-297; P61769 21-119, limits assumed).
T4 construct: Biotin-labeled control complex captured on neutravidin plates through a C-terminal BirA tag; also called control HLA-E/peptide complex
Described as above. The protocol: as §1
The source holds these as a separate data set.

In assay [5] the target is T5, HLA-E/… (human, UniProt P13747 22-297; P61769 21-119, limits assumed).
T5 construct: Biotin-labeled control complex, used in both ELISA formats; also called control HLA-E/peptide complex
The description is as above. Here is the method:
as §1

Assay [6] has as its target T6, HLA-E/… (human, UniProt P13747 22-297; P61769 21-119, limits assumed).
T6 construct: Soluble biotin-labeled control complex; also called control HLA-E/peptide complex
In words: ELISA, antibody captured on Protein-A wells, soluble biotin-labeled HLA-E/peptide complex, SA-HRP. The protocol:
(§2) The isolated scFv VL and VH domains were cloned into pFUSE-hIgG1-Fc and pFUSE2-CLIg-hk plasmids, respectively and plasmid DNA was prepared using standard protocol and used to co-transfect a 200 ml culture of Expi-293 cells. Following the manufacturer's instructions, supernatants were harvested at day 5 post-transfection for antibody purification using Protein-A coated beads. Next, the purified mouse-human chimeric IgG1 antibody, MAB-031 and the fully human antibody, MAB-036 were characterized for binding specificity and sensitivity by ELISA. In brief, Protein-A coated 96-wells were used to capture either MAB-031 or MAB-036 added to wells at a concentration of 10 ug/ml. After incubation for 60 min, wells were washed using PBS (pH 7.4)+0.1% Tween-20 and soluble biotin-labeled HLA-E/peptide complexes were added to individual wells at concentrations ranging from 0.25 to 0.0625 ug/ml. Wells were washed 3× using a solution of PBS+Tween-20 and then streptavidin-Horseradish peroxidase (SA-HRP) conjugate was added to wells and incubated for 30 min. One final wash was done and the substrate solution containing 3,3′,5,5′-tetramethylbenzidine (TMB) was added to wells and developed for 10 min before adding stop solution (0.16M sulfuric acid) to terminate the reaction.

Assay [7] has as its target T7, HLA-E/… (human, UniProt P13747 22-297; P61769 21-119, limits assumed).
T7 construct: Soluble biotin-labeled control complex; also called control HLA-E/peptide complex
The description is as above. Here is the method: as §2
The source holds these as a separate data set.

B1: MAB-036 (anti-HLA-E/…) (antibody, V domains shown)
VH: EVQLVESGGGLVQPGGSLRLSCAASGFTFSSYAIHWVRQAPGKGLEWVARIAYGGGATRYADSVKGRFTISADTSKNTAYLQMNSLRAEDTAVYYCAKGLSNFDYWGQGTLVTVSS
VL: DIQMTQSPSSLSASVGDRVTITCRASQSISSYLNWYQQKPGKAPKLLIYNAAFLYSGVPSRFSGSRSGTDFTLTISSLQPEDFATYYCQQAATYPATFGQGTKVEIK
notes: Full-length human IgG1 (pFUSE vector system, human kappa); CDRs of R4Clone #1 mutated light chain were grafted onto trastuzumab VH and VL frameworks; also called MAB36
Turning to B1, the binding result in assay [1] was “no binding (tested: 1 ug/ml to 0.0001 ug/ml)”; in assay [2], “no binding (tested: 1 ug/ml to 0.0001 ug/ml)”; in assay [3], “no binding (tested: 1 ug/ml to 0.0001 ug/ml)”; in assay [4], “no binding (tested: 1 ug/ml to 0.0001 ug/ml)”; in assay [5], “no binding (tested: 1 ug/ml to 0.0001 ug/ml)”; in assay [6] it was “no binding”. The binding result in assay [7] is listed as “no binding”.

B2: MAB-031 (anti-HLA-E/…) (antibody, V domains shown)
VH: QVQLQQSGPELVKPGASVKMSCKASGYTFTDYVISWVKQRTGQGLEWIGEIYPGNNTTYYNDNFRGKATLTVDKSSSTAYMQLSSLTSEDSAVYYCARESLGIYYGSTYKGLYAMDYWGQGTTLTVSS
VL: QIVLTQSPAIMSASPGEKVTITCSASSSVSYMHWFQQKPGTSPKLWIYSTSNLASGVPARFSGSGSGTSYSLTISRMEAEDAATYYCQQRSSYPPTFGAGTKLELKR
notes: also called MAB31; MAB-31
As for B2, the binding result is recorded as “no binding (tested: 1 ug/ml to 0.0001 ug/ml)” in assay [1]; “no binding (tested: 1 ug/ml to 0.0001 ug/ml)” in assay [2]; “no binding (tested: 1 ug/ml to 0.0001 ug/ml)” in assay [3]; “no binding (tested: 1 ug/ml to 0.0001 ug/ml)” in assay [4]; “no binding (tested: 1 ug/ml to 0.0001 ug/ml)” in assay [5]; “no binding” in assay [6]. Further, the binding result in assay [7] is “no binding”.
